Test results reported in publication PMC4028238.

These sequences were tested on Influenza A virus hemagglutinin (whole virus as assayed) (Influenza A virus H3N2 A/Texas/1977 (A/Texas/1/77)) (assay: competition ELISA). Details: 5' PEG200, PBS, room temperature, […] (0.5-500 nM) […] (5 nM).

Sequence	relative binding affinity (IC50 ratio vs BV02) (IC50(BV02)/IC50)
ATTAACCCTCACTAAAGGGCTGAGTCTCAAAACCGCAATACACTGGTTGTATGGTCGAATAAGTTAA [BV32]	1.33

Same assay, conditions: * marks (phosphorothioate) after nt 1,2,3, 3' inverted dT, PBS, room temperature, […] (0.5-500 nM) […] (5 nM)

Sequence	relative binding affinity (IC50 ratio vs BV02) (IC50(BV02)/IC50)
ATTAACCCTCACTAAAGGGCTGAGTCTCAAAACCGCAATACACTGGTTGTATGGTCGAATAAGTTAA [BV29]	6.7

Same assay, conditions: * marks (phosphorothioate) after nt 1,2,3 and the last 3 linkages, PBS, room temperature, […] (0.5-500 nM) […] (5 nM)

Sequence	relative binding affinity (IC50 ratio vs BV02) (IC50(BV02)/IC50)
ATTAACCCTCACTAAAGGGCTGAGTCTCAAAACCGCAATACACTGGTTGTATGGTCGAATAAGTTAA [BV28]	1.36

Same assay, conditions: * marks (phosphorothioate): A*T*T*AACC*CTCACTAAAGGG*CTGAGTC*TCAAAACCG*CAATACACTG*GTTGTATG*GTCGAATAAGT*T*A*A, PBS, room temperature, […] (0.5-500 nM) […] (5 nM)

Sequence	relative binding affinity (IC50 ratio vs BV02) (IC50(BV02)/IC50)
ATTAACCCTCACTAAAGGGCTGAGTCTCAAAACCGCAATACACTGGTTGTATGGTCGAATAAGTTAA [BV31]	7.51

Same assay, conditions: PBS, room temperature, […] (0.5-500 nM) […] (5 nM)

Sequence	relative binding affinity (IC50 ratio vs BV02) (IC50(BV02)/IC50)	IC50
AAATAAGCCTGACTTAACGGGTGACTCTCAAAACCGCAATACACTCAGCCCTTTAGTGAGGGTTAATT [BV19k]	0.932	
AACCCTCACTCCGACTCACTCAAAACCGCAATACACTCAGCCAGTGAGGGTT [BV19f]	0.131	
AACCCTCACTCTCAAAACCGCAATACAGTGAGGGTT [BV19h]	0.016	
AACGCTCACTAAACCCCCCCCCACCCCCCCCCACCCCCCCCCAAAAGTGAGCGTT [BV45a]	12.6	
AACGCTCACTAACCCCCCCCCCACCCCCCCCCCACCCCCCCCCCAAGTGAGCGTT [BV45]	14.2	
AACGCTCACTACCCCCCCCCCAACCCCCCCCCCAACCCCCCCCCCAGTGAGCGTT [BV45b]	15.1	
AACGCTCACTCCCAAGAAGAAGAACCCCCCCCCCCCCCCCAGTGAGCGTT [BV43b]	8.01	
AACGCTCACTCCCCCAAGAACCCCCCCCCCATGCACCCCCCCCCCAGTGAGCGTT [BV45e]	11.4	
AACGCTCACTCCCCCAAGAACCCCCCCCCCCCTCCCCCCCCCCCCAGTGAGCGTT [BV45c]	11.7	
AACGCTCACTCCCCCAAGAACCCCCCCCCCCTGACCCCCCCCCCCAGTGAGCGTT [BV45d]	10.7	
AACGCTCACTCCCCCACCCCCCCACCCCCCCACCCCCCCACCCCCAGTGAGCGTT [BV35m]	6.54	
AACGCTCACTCCCCCCCCACCCCCCCCACCCCCCCCACCCCCCCCAGTGAGCGTT [BV35n]	7.23	
AACGCTCACTCCCCCCCCCCCACCCCCCCCCCCACCCCCCCCCCCAGTGAGCGTT [BV35o]	9.92	
AACGCTCACTCCCCCCCCCCCCCCAAGAAGAACCCCCCCCCCCCCAGTGAGCGTT [BV42b]	14.9	
AACGCTCACTCCCCCCCCCCCCCCCAAGAACCCCCCCCCCCCCCCAGTGAGCGTT [BV35s]	7.45	
AACGCTCACTCCCCCCCCCCCCCCCCCACCCCCCCCCCCCCCCCCAGTGAGCGTT [BV35p]	9.88	
AACGCTCACTCCCCCCCCCCCCCCCCCCCAGTGAGCGTT [BV35g]	0.639	
AATTAACCCTCACTAAAGCCGACTCACTCAAAACCGCAATACACTCAGCCCTTTAGTGAGGGTTAATT [BV19b]	1.26	
AATTAACCCTCACTAAAGGGCTCTCACTCAAAACCGCAATACACTCAGCCCTTTAGTGAGGGTTAATT [BV19a]	0.574	
AATTAACCCTCACTAAAGGGCTGAGTCTCAAAACCGCAATACACTCAGCCCTTTAGTGAGGGTTAATT [BV19]	1.34	

Sequence	relative binding affinity (IC50 ratio vs BV02) (IC50(BV02)/IC50)	IC50
AATTAACCCTCACTAAAGGGCTGAGTCTCAAAACCGCAATACACTGGTTGTACAACCAGTGTATTGCG [BV14]	1.33	
AATTAACCCTCACTAAAGGGCTGAGTCTCAAAACCGCAATACACTGGTTGTATGGTCGAATAAGTTAA [BV02]	1	0.055 µM
AATTAACCCTCACTAAAGGGCTGAGTCTCAAAACCGCAATACACTGGTTGTATGTTAATTGGGAGTGA [BV18]	7.26	
AATTAACCCTCACTAAAGGGCTGAGTCTCAAAACGTTTTGAGACTCAGCCCTTTAGTGAGGGTTAATT [BV11]	0.124	
AATTAACCCTCACTAAAGGGCTGATGCGGAATAAGTTAAAACCGCAGGTATACACTGGTTGTATCGAA [BV02a]	0.946	
AATTAACCCTCCTAAAGGGTCTGAGTCTCAAAACCGCAATACACTCAGCCCTTTAGTGAGGGTTAATT [BV19l]	0.004	
AATTAACCCTGACTAAAGGGGTGAGTCTCAAAACCGCAATACACTCAGCCCTTTAGTGAGGGTTAATT [BV19i]	0.071	
AATTAACGCTCACTAAAGCCCCACCCACCCACCCACCCACCCACCCACCCCTTTAGTGAGCGTTAATT [BV36b]	0.611	
AATTAAGCCTGACTTAAGGGGTGAGTCTCAAAACCGCAATACACTCAGCCCTTTAGTGAGGGTTAATT [BV19j]	0.071	
AGATAAATGTCCGGGTTCGCTTCACTGATCAAACATAGACAGGTATAATTACTGCCTGAAGAAAATCC [S2]	1	
CACCACCACCACCACCACCACCACCACCAC [BV24b]	0.05	
CCCCCCCCCCCCCCCCCGCGCTGAGTCCCCCCCCCCCCCCCCCCCACTCAGCGCG [BV35c]	1.16	
CCCCCCCCCGCGCTGAGTCCCCCCCCCCCCCCCCCCCACTCAGCGCGCCCCCCCC [BV35b]	0.938	
CTCACTAAAGCGCTGAGTCCCCCCCCCCCCCCCCCCCACTCAGCGCTTTAGTGAG [BV35]	1.01	
CTCACTAAAGGGCTGAGTCAAACCGCAATACACTGGTTGTATGGTCGAATAAGTT [BV27]	0.116	
CTCACTAAAGGGCTGAGTCAAACCGCAATACACTGGTTGTATGGTCGGTTAAGTT [BV27c]	0.771	
CTCACTAAAGGGCTGAGTCTCAAAACCGCAATACACTCAGCCCTTTAGTGAG [BV19g]	0.132	
CTCCTCCTCCTCCTCCTCCTCCTCCTCCTC [BV24a]	0.08	
GAAATAACCTCTGATAAAAAATTTCTCCATAGCGAAGTAAGTCCATAAGGAATGCCGATTCGGCTTGC [S1]	1.1	
GCTGAGTCTCAAAACCGCAATACACTGGTT [BV26]	0.792	

Sequence	relative binding affinity (IC50 ratio vs BV02) (IC50(BV02)/IC50)	IC50
GGCTCACTAAAGGGCTGAGTCTCAAAACCGCAATACACTCAGCCCTTTAGTGAGGGTTAATTTTAAAGG [BV19c]	0.086	
GGCTGAGTCAAACCGCCTAACACTGGTACAATGGCGGTTAAGTT [BV27m]	0.012	
GGTAGTTATAGTATATGGAAGGGGCCCCCCCCCCCCCCCCGTGTCGTATGG [C7C]	15.5	
GGTAGTTATAGTATATGGAAGGGGGTGTCGTATGG [C7-35M]	0.549	
GTAAATACCTCTGAAATAATATCTCCATGACAGAGTAAGTCCATGAGAACTGACGATGCAAGTCTGTC [S3]	0.7	
GTCACTAAAGGGCTGAGTCAAACCGCAATACACTGGTTGTATGGTCGGTTAAGTT [BV27f]	0.75	
GTCACTAAAGGGCTGAGTCAAACCGCCATACACTGGTTGTATGGCGGTTAAGTT [BV27j]	0.089	
GTTTTGAGACTCAGCCCGGGCTGAGTCTCAAAACCGCAATACACTGGTTGTACAACCAGTGTATTGCG [BV13]	0.084	
TCATTCTCAGTAAAGGGCTGAGAATTCAAACCGCAATACACTGGTAAAAAGTGCGGTTAAG [BV27p]	0.133	
TCATTCTCAGTAAAGGGCTGAGTCAAACCGCAATACACTGGTAAAAAGTGCGGTTAGCGAG [BV27o]	0.116	
TCCTCAGCAAAATAGCGGGGCTGAGTCAAACCGCAATACACTGGTAAAAAGTGCGGTTAAG [BV37b]	1	
TCCTCAGCAAAATAGCGGGGCTGAGTCTCAAACCGCAATACACTGGTAAAAAGTGCGGTTA [BV37c]	7.56	
TCCTCAGTAAAATAGCGGGGCTGAGTCAAACCGCAATACACTGGTAAAAAGTGCGGTTAAG [BV27n]	0.151	
TCCTCAGTAAAGGGCTGAGAAACCGCAATACACTGGTAAAAAGTGCGGTTAAGTT [BV27g]	0.093	
TCCTCAGTAAAGGGCTGAGTCAAAACCGCAATACACTGGTAAAAAGTGCGGTTAG [BV27i]	0.065	
TCCTCAGTAAAGGGCTGAGTCAAACCGCAATACACTGGTAAAAAGTGCGGTTAAG [BV27h]	0.092	
TCTCAGCCCCCGCTGAGTCAAAGCGCACCCCCCCCCCCCCCCCCCCTGCGCTTAA [BV37f]	0.495	
TCTCAGCCCCCGCTGAGTCAAAGCGCACCCCCCCCCCCCCCCCTGCGCTTAA [BV37e]	0.995	
TTCCTCAGCAAAATAGCGGGGCTGAGCAACCGCAATACACTGGTAAAAAGTGCGGTTAAGA [BV37a]	0.874	
